The values below come from publication PMC4585926, “A RANKL mutant used as an inter-species vaccine for efficient immunotherapy of osteoporosis” (Scientific Reports, 2015).

Residue numbers refer to the chain shown, from its start.

The target in series [1] is T1, human RANKL ectodomain (residues 158-317) Arg223Ala (human, UniProt O14788 158-317, Arg223Ala).
T1 sequence: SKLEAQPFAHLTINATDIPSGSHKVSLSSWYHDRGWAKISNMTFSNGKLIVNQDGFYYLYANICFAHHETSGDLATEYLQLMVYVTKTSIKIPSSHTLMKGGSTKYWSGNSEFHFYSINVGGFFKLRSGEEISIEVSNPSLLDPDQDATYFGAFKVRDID
Description: SPR. Background: SPR reads the build-up and loss of mass on a sensor chip optically.

Series [2] has as its target T2, human RANKL ectodomain (residues 158-317) Arg223Ala plus Asp300Ala (human, UniProt O14788 158-317, Arg223Ala | Asp300Ala).
T2 sequence: T1 sequence with D143A
Description: SPR.

Series [3] has as its target T3, human RANKL ectodomain (residues 158-317) Asp300Ala (human, UniProt O14788 158-317, Asp300Ala).
T3 sequence: T1 sequence with A66R, D143A
Description: SPR.

Series [4] concerns the molecule itself. Description: crystal structure; hRANKL and mRANK mixed 1:1 in 0.1 M Tris pH 7.0, 10 mg/mL; sitting drop at 294 K, microseeded with crushed mRANKL-mRANK crystals; 2.8 Å, space group P63.
For series [5], the target named is T4, mouse RANK extracellular domain (mouse, UniProt O35305 31-214).
T4 construct: RANK, mouse, extracellular domain (plasmid pET28a-mRANK); also called mRANK; mRANK ectodomain; source: plasmid pET28a-mRANK
T4 sequence (looked up): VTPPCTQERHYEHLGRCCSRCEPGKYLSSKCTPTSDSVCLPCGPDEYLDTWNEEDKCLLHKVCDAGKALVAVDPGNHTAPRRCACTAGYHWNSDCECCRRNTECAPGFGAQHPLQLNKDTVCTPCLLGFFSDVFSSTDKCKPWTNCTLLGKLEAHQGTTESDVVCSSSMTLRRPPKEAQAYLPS
Description: SPR; Biacore 3000; NTA sensor chip charged with 0.3 M NiSO4, mRANK (50 nM, 15 ul) loaded; hRANKL or mutants injected at 0, 0.47, 0.94, 1.88, 3.75, 7.5, 15 and 30 nM; BIAevaluation 4.1. To be noted: both partners purified.

Series [6] concerns the molecule itself. Description: cross-linking; DSS to protein 0:1, 5:1, 10:1 and 20:1, in PBS pH 7.3, on ice 1 hour, stopped with 50 mM Tris pH 7.5; SDS-PAGE.

B1: mouse RANK extracellular domain (receptor)
chain: T4 sequence (looked up)
For orientation: Kd means the free concentration of one partner at which half of the binding sites on the other are occupied at equilibrium, for simple one-to-one binding. In the case of B1, the Kd in series [1] was 10.7 nM; in series [2], 39.4 nM; in series [3], 2.15 nM.

B2: human RANKL ectodomain (residues 158-317), wild type (ligand, UniProt O14788 158-317, looked up)
chain: T1 sequence with A66R
notes: RANKL, human, ectodomain, residues 158-317 (plasmid pGEX-6P-hRANKL); Homotrimer in the crystal structure; also called hRANKL; wild-type hRANKL; source: E. coli BL21, purified (glutathione-Sepharose, PreScission cleavage, Superdex 200); not shown: GST, N-terminal, cleaved
As a reminder, the stoichiometry N is a count of units in the complex or per binding partner. As for B2, the “stoichiometry N” value in series [4] was 3. For the same molecule, the Kd in series [5] stood at 0.156 nM.

B3: human RANKL ectodomain (residues 158-317) Arg223Ala (ligand, UniProt O14788 158-317, looked up)
chain: T1 sequence
notes: RANKL, human, ectodomain, residues 158-317, with Arg223Ala (mutant of pGEX-6P-hRANKL); source: E. coli BL21, purified (glutathione-Sepharose, PreScission cleavage, Superdex 200); not shown: GST, N-terminal, cleaved
Take B3: the “fold decrease in affinity against wild-type hRANKL” value (from here on “fold decrease in affinity”) in series [5] was found to be 20 fold.

B4: human RANKL ectodomain (residues 158-317) Asp300Ala (ligand, UniProt O14788 158-317, looked up)
chain: T1 sequence with A66R, D143A
notes: RANKL, human, ectodomain, residues 158-317, with Asp300Ala (mutant of pGEX-6P-hRANKL); also called 300 M; source: E. coli BL21, purified (glutathione-Sepharose, PreScission cleavage, Superdex 200); not shown: GST, N-terminal, cleaved
Regarding B4, in series [5], the “fold decrease in affinity” value was found to be 70 fold.

B5: human RANKL ectodomain (residues 158-317) Arg223Ala plus Asp300Ala (ligand, UniProt O14788 158-317, looked up)
chain: T1 sequence with D143A
notes: RANKL, human, ectodomain, residues 158-317, with Arg223Ala and Asp300Ala (mutant of pGEX-6P-hRANKL); Trimeric by chemical cross-linking; also called hRANKL double-site mutant; source: E. coli BL21, purified (glutathione-Sepharose, PreScission cleavage, Superdex 200); not shown: GST, N-terminal, cleaved
As for B5, in series [6], the “stoichiometry N” value worked out at 3. The “fold decrease in affinity” value in series [5] was found to be 260 fold.

B6: mouse RANKL (ligand)
chain: KPEAQPFAHLTINAASIPSGSHKVTLSSWYHDRGWAKISNMTLSNGKLRVNQDGFYYLYANICFRHHETSGSVPTDYLQLMVYVVKTSIKIPSSHNLMKGGSTKNWSGNSEFHFYSINVGGFFKLRAGEEISIQVSNPSLLDPDQDATYFGAFKVQDID
notes: RANKL, mouse; the text names the ectodomain in general as residues 161-316 of mRANKL; also called mRANKL
With B6, in series [5], the Kd was 0.068 nM.
